Experimental data: patent publication US20240016923A1

Columns and labels:
Assay in all cases: dose-dependent ELISA, antigen captured by GNA lectin
[1] = target: secreted E2 ectodomain (sE2), HCV E2 residues 384-661 (Hepatitis C virus, isolate H77C) (UniProt P27958)
[2] = target: membrane-bound E1E2 (mbE1E2) (Hepatitis C virus, isolate H77C (genotype 1a)) (UniProt P27958)
[3] = target: secreted E1E2 with c-Fos/c-Jun leucine zipper scaffold (sE1E2.LZ) (Hepatitis C virus H77; human)

CBH-4G (antibody) showed a Kd [1] of 0.5 nM, a Kd [2] of 7.8 nM and a Kd [3] of 18 nM.

Substance HCV1 (antibody) has a Kd [1] of 6.2 nM, a Kd [2] of 9.8 nM and a Kd [3] of 3.5 nM.

AR4A (antibody) gave a Kd [2] of 2.3 nM, a Kd [3] of 16 nM and a fold lower affinity relative to mbE1E2 [3] of 8 fold.

With HC84.24 (antibody) the Kd [1] was 0.7 nM.

For HC33.1 (antibody), the Kd [1] was 1.9 nM, the Kd [2] was 3.8 nM and the Kd [3] was 0.9 nM.

HC-11 (antibody) gave a Kd [1] of 11 nM, a Kd [2] of 1.8 nM and a Kd [3] of 3.2 nM.

Substance AR5A (antibody) has a Kd [2] of 1.5 nM and a Kd [3] of 1.7 nM.

In the case of CBH-4D (antibody), the Kd [1] is reported as 1 nM, the Kd [2] is reported as 28 nM and the Kd [3] is reported as 26 nM.

In the case of “HC-1 AM (affinity-matured HC-1 antibody)”, the Kd [1] is reported as 3.6 nM, the Kd [2] is reported as 1.5 nM and the Kd [3] is reported as 2.9 nM.

CBH-7 (antibody) was tested, and the Kd [1] was 0.3 nM, the Kd [2] was 1 nM and the Kd [3] was 1.7 nM.
